Sequences and labels used below:
B1: ISG20 D-peptide WT (competitive kinase assay form, with N-terminal Tyr-Ala) (peptide)
peptide: YAIRARRGLPRLAVSD
modifications: not fully specified
notes: ISG20, human, residues 168-181; also called ISG20^WT; ISG20 peptide WT; source: synthetic peptide (GenScript)
B2: ISG20 D-peptide I1N (peptide)
peptide: YANRARRGLPRLAVSD
modifications: not fully specified (some residues)
notes: ISG20, human, residues 168-181 with the change; numbers count on: the 14-mer peptide (position 1 = Ile168); also called ISG20^I1N; source: synthetic peptide (GenScript)
B3: ISG20 D-peptide G6Q (peptide)
peptide: [dY][dA][dI][dR][dA][dR][dR][dQ][dL][dP][dR][dL][dA][dV][dS][dD]
notes: ISG20, human, residues 168-181 with the change; numbers count on: the 14-mer peptide (position 1 = Ile168); also called ISG20^G6Q; source: synthetic peptide (GenScript)
B4: ISG20 D-peptide I1R/R2I (peptide)
peptide: YARIARRGLPRLAVSD
modifications: not fully specified (some residues)
notes: ISG20, human, residues 168-181 with the changes; numbers count on: the 14-mer peptide (position 1 = Ile168); also called ISG20^I1R/R2I; source: synthetic peptide (GenScript)

Square brackets hold non-standard residues; d marks the D form. Ends that are not written are not given here.

The text below walks through data of article PMC11982978, “Cancer hotspot mutations rewire ERK2 specificity by selective exclusion of docking interactions” (The Journal of Biological Chemistry, 2025).

The experiment has as its target T1, Active phosphorylated His6-tagged ERK2 WT (rat (p-0033 says mouse), UniProt P63086 3-358, phosphorylated (active form; sites not given)).
T1 construct: ERK2 (MAPK1); rat numbering; Same plasmid as the crystallised protein m9, but phosphorylated; also called WT ERK2; His6-ERK2; source: E. coli BL21(DE3), co-expressed with GST-MEK1ΔN3, purified (Talon resin)
Put plainly: competitive peptide kinase assay; D-peptide titrated as competitive inhibitor of 10 nM ERK2 on 5 μM D-site dependent reporter peptide (AQT0376), 10 μM ATP; 54 mM HEPES pH 7.4, 1.2 mM DTT, 0.01% Brij-35, 1% glycerol, 0.2 mg/ml BSA, 10 mM MgCl2; fluorescence read-out; IC50 as relative binding affinity. The following applies: both partners purified.
By IC50 is commonly meant the concentration that gives 50% inhibition. In the case of B1, the IC50 was 5.4 µM.

For B2, the 50% inhibitory concentration (IC50) amounted to 190 µM.

Regarding B3, the 50% inhibitory concentration (IC50) stood at 41 µM.

For B4, the IC50 was found to be 200 µM.
